Experimental data taken from PMC10786891, “Massively parallel profiling of RNA-targeting CRISPR-Cas13d”.
Changes are numbered by the printed parent chain. Names may count otherwise.

T1: EsCas13d, nuclease-dead (Eubacterium siraeum, UniProt B0MS50, R295A;H300A;R849A;H854A)
T1 sequence: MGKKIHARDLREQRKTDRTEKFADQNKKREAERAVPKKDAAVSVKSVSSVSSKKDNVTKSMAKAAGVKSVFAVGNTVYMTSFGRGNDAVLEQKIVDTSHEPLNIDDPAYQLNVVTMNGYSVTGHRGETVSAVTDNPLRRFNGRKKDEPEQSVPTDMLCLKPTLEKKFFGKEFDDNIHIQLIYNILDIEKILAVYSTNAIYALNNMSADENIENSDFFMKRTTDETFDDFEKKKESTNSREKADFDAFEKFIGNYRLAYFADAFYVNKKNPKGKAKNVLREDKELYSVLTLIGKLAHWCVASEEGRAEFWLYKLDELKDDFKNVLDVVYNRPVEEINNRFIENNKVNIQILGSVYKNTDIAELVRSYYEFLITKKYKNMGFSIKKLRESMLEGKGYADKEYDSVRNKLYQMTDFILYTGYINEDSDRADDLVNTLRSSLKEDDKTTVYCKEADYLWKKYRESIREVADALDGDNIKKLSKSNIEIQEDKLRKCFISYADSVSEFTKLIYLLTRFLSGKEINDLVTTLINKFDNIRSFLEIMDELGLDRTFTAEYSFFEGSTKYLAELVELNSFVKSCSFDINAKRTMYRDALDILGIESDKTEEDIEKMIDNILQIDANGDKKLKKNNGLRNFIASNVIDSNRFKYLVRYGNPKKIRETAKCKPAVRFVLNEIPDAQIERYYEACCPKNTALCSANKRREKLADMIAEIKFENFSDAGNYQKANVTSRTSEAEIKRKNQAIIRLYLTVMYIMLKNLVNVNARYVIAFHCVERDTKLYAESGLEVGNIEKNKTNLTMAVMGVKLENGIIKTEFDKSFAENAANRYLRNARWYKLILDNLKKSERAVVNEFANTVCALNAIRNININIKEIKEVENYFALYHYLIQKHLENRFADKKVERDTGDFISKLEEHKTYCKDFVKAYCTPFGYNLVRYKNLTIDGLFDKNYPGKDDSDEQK

B1: target 1 insU 3' of 14,insC 3' of 5 (mixed)
RNA 1: CACCCGUGCAAAAAUGCAGGGGUCUAAAACUGAGCGGAUAACCUCUCUAUGG
RNA 2: GGGAAUGGAUCCACAUCUACGAAUUCGUACCAUAGAGAUGGUUAUCCGCCUCACCGAGAUCGGAAGAGCACACGU
B2: target 1 U10G,A18U (mixed)
RNA 1: B1 RNA 1
RNA 2: GGGAAUGGAUCCACAUCUACGAAUUCGUACCAUUGAGAGGUGAUCCGCUCACCGAGAUCGGAAGAGCACACGU
B3: target 3 C1U,U22A (mixed)
RNA 1: CACCCGUGCAAAAUUGCAGGGGUCUAAAACGACCUGAAUAUUUCAGAUCAAA
RNA 2: GGGAAUGGAUCCACAUCUACGAAUUCGUUAUUGAUCUGAAAUAUUCAGGUUUGCAGAUCGGAAGAGCACACGU
B4: target 3 insA 3' of 14 (mixed)
RNA 1: B3 RNA 1
RNA 2: GGGAAUGGAUCCACAUCUACGAAUUCGUUUUUGAUCUGAAAAUAUUCAGGUCUGCAGAUCGGAAGAGCACACGU
B5: target 3 C1G,C6A (mixed)
RNA 1: B3 RNA 1
RNA 2: B3 RNA 2 with A30U, C46A, U51G
B6: target 3 C1G,U22A (mixed)
RNA 1: B3 RNA 1
RNA 2: B3 RNA 2 with U51G
B7: target 3 A5G,U7G (mixed)
RNA 1: B3 RNA 1
RNA 2: B3 RNA 2 with A30U, U45G, A47G, U51C
B8: target 3 insG 3' of 7 (mixed)
RNA 1: B3 RNA 1
RNA 2: B4 RNA 2 with A42U, U43A, A44U, U46G
B9: target 3 insA 3' of 8,insG 3' of 5 (mixed)
RNA 1: B3 RNA 1
RNA 2: GGGAAUGGAUCCACAUCUACGAAUUCGUUUUUGAUCUGAAAUAUAUCAGGGUCUGCAGAUCGGAAGAGCACACGU
B10: target 3 C1A,U22A (mixed)
RNA 1: B3 RNA 1
RNA 2: B3 RNA 2 with U51A
B11: target 3 C1G,U8G (mixed)
RNA 1: B3 RNA 1
RNA 2: B3 RNA 2 with A30U, U44G, U51G
B12: target 3 insC 3' of 9,insG 3' of 6 (mixed)
RNA 1: B3 RNA 1
RNA 2: B9 RNA 2 with U44C, A45U, A48G, G49A
B13: target 3 insU 3' of 22,insG 3' of 6 (mixed)
RNA 1: B3 RNA 1
RNA 2: GGGAAUGGAUCCACAUCUACGAAUUCGUUUUUUGAUCUGAAAUAUUCGAGGUCUGCAGAUCGGAAGAGCACACGU
B14: target 3 U22A (mixed)
RNA 1: B3 RNA 1
RNA 2: B3 RNA 2 with U51C
B15: target 3 U2A,G3A (mixed)
RNA 1: B3 RNA 1
RNA 2: B3 RNA 2 with A30U, G49A, U50A, U51C

biological target: T1, EsCas13d, nuclease-dead; assay: crRNA (strand 1, pre-loaded); Mg2+; 40 mM Tris-HCl pH 7.5, 150 mM NaCl, 6 mM MgCl2, 1 mM DTT, 0.1% Tween-20, 0.2 mg/ml BSA; 25 C; 10 min per concentration, then washed; conditions: tags: His6-TwinStrep-SUMO cleaved; N-terminal SNAP kept (SNAP-Surface 488); label: 3' end held by stalled T7 RNA polymerase

B1 and B2 are within error of each other in Kd: about 60 nM for the first, 57 ± 9 nM for the second.

Going from B3 to B4, the Kd rises from 25.9 ± 5.5 nM to 60 ± 12 nM (2.3-fold).

B5 and B6 are within error of each other in Kd: 30.5 ± 5 nM for the first, 25.1 ± 5.2 nM for the second.

B7 and B8 are within 1.5-fold of each other in Kd: 44 ± 6 nM for the first, 65.5 ± 13.5 nM for the second.

Going from B9 to B10, the Kd falls from 68 ± 15 nM to 13.6 ± 1.9 nM (5-fold). The second binds more tightly here.

Going from B11 to B12, the Kd rises from 35 ± 6 nM to 89 ± 23.5 nM (2.5-fold). The first binds more tightly here.

First: B13
Second: B14
The Kd of the first is 1.9-fold lower: 7.7 ± 0.65 nM for the first, 14.8 ± 1.45 nM for the second. The first binds more tightly here.

B15 showed a Kd of 38.5 ± 4 nM.
